Test: soluble on expression in E. coli; label from the status in PepcDB or PDB records

| Sequence | soluble on expression in E. coli |
| --- | --- |
| MPPPGIPPPFPPMGLPPMSQRPPAIPPMPPGILPPMLPPMGAPPPLTQIPGMVPPMMPGMLMPAVPVTAATAPGADTASSAVAGTGPPRALWSEHVAPDGRIYYYNADDKQSVWEKPSVLKSKAELLLSQCPWKEYKSDTGKPYYYNNQSKESRWTRPKDLDDLEVLVKQEAAGKQQQQLPQTLQPQPPQPQPDPPPVPPGPTPVPTGLLEPEPGGSEDCDVLEATQPLEQGFLQQLEEGPSSSGQHQPQQEEEESKPEPERSGLSWSNREKAKQAFKELLRDKAVPSNASWEQAMKMVVTDPRYSALPKLSEKKQAFNAYKAQREKEEKEEARLRAKEAKQTLQHFLEQHERMTSTTRYRRAEQTFGELEVWAVVPERDRKEVYDDVLFFLAKKEKEQAKQLRRRNIQALKSILDGMSSVNFQTTWSQAQQYLMDNPSFAQDHQLQNMDKEDALICFEEHIRALEREEEEERERARLRERRQQRKNREAFQTFLDELHETGQLHSMSTWMELYPAVSTDVRFANMLGQPGSTPLDLFKFYVEELKARFHDEKKIIKDILKVNTAFEDFAHVISFDKRAAALDAGNIKLTFNSLLEKAEAREREREKEEARRMRRREAAFRSMLRQAVPALELGTAWEEVRERFVCDSAFEQITLESERIRLFREFLQVLEQTECQHLHTKGRKHGRKGKKHHHKRSHSPSGSESEEEELPPPSLRPPKRRRRNPSESGSEPSSSLDSVESGGAALGGRGSPSSHLLGADHGLRKAKKPKKKTKKRRHKSNSPESETDPEEKAGKESDEKEQEQDKDRELQQAELPNRSPGFGIKKEKTGWDTSESELSEGELERRRRTLLQQLDDHQ | soluble |
| MGSDKIHHHHHHVPDITIATERCIGCAECARDCPTGIIRMENGIPAVAPRREKRCIGCLHCVTVCPCGALSFRGVTPESCTPLKNRFPQPEALEILMKGRRSVRRFLPEAVDSALIRRTVDAAAHAPSGKNQRGLLFTVVDDPQTMNRLRHDTVEAVREALADGCSHPQTAFFQAALARWDTGTDIIFRNAPHLLWVTAPRTNTTAQADVHVALTYFELMAAACGLGTLWCGFATWAMSEIAPRIARGLGIPEAHTSGYVMLFGKPAVRYHRTAERGCDGFNRVVWPPAT | not soluble |
| MGSDKIHHHHHHMYPNLTSEQALLILQSARNPDKAYDLFAQAAEVRDKVFGKRLWWSSGSGGIFPCLVKPRCSYCTYYTEKLFPTDVLLTGLELIESLGIQQFHISGGTDLDEGYDEQLLELVQAIKTRSGLKLEINLGPSFRQETVLELKKLGIDSVTSSLECNTPAIFARAKPGDSLERRRELLHHCEEADMPSRSMMLLGLGETDQERIEHLFYLQQFKKLYQLRLSRFMPFPGTLYKDRSRCSPWDTALITAMARLILPNLEISLAAGNSNDDIPLWYLAGGGSQLLGVSITRKEPPATPDVDVYAIGEGAYVVDKRQQVARVLEGMNLEVTCEMPDYRALQSQF | not soluble |
| GWAAGDYPVVTTDHLKAMIDEKRDFLLIDARTPEEYAEAHIVGAVNVPEKTFDSASAQLPADKAKLIVLYCNGIKCGKSKRVAKKVEPLGYTAIAVYNEGMPVWEERGLPIVKGAGYGRK | not soluble |
| MAENIPLRVQFKRMKAAEWASSDVVLLEGEIGFETDTGFAKFGDGQNTFSKLKYLTGPKGPKGDTGLQGKTGGTGSRGPAGKPGTTDYDQLQNKPDLGAFAQKEETNSKITKLESSKADKNAVYLKAESNAKLDEKLNLKGGVMTGQLQFKPNSGIKPSSSVGGAINIDMSKSEGAAMVMYTNKDTTDGPLMILRSNKDTFDQSVQFVDYKGTTNAVNIVMRQPTTPNFSSALNITSANEGGSAMQIRGVEKALGTLKITHENPSVDKEYDKNAAALSIDIVKKQKGGKGTAAQGIYINSTSGTTGKLLRIRNLNDDKFYVKPDGGFYAKETSQIDGNLKLKDPIANDHAATKAYVDGEVEKLKALLAAKQM | not soluble |
| SLLPFKENRGLIFLDPPFEVKNEFQKLLEALKKIKLRVLNNTVLIWYPIKDLSLVCDVYHNYKNIGFKETMIIEYELLNSDKNMVKCGLMLINPPNIRGELEKLTEYLSGTLNLKFTYIYL | not soluble |
| SSSRGFNIKARGLCNNNNGGGGTGAKCGRWNPTVEQVKLLTDLFKAGLRTPSTDQIQKISMELSFYGKIESKNVFYWFQNHKARERQKCRKISTVKFDHRQDTDLSKPRRDNVRRHQLPAKG | soluble |
| MPPYFSPKSEAPICGYCQLTFSQTGSMTRHRDRLHTKNHTCLICVSNCEGAPILGESIKKHLQHAHGYVDVQSCSCCHWIFENKIQLRTHLDAMKATGQPGDEVVLAKGTFAPGTLSQAAILQSKAYSANRQQKCQQSLKVDSGGFNDLSETQLKFILDNYSQIVGELESPNPKISGCRKRKCGMTIQHVLRDDDFKKIELC | not soluble |
| MSLKIKLIAVDLDGTLLTSRKKVSPKTLATLKKAREKGILVVPLSGRPLPGVLKVFEPFKLDPADNFAICYNGGLVQRMDGEVLSVSPLTDENVEHMLALKQTGIFGPYFMDTKDFYVAPKGSSFGVGFLAKARNMGVKRMVPGQHYEFIKGEFVSLPSKIKKFRAGFSPATEQEFEISASGGQCLEFNTPGTSKGQALTTLLDLLNIQPEEAMVFGDNNNDLSDFQLPGVFKVAMGNAIDEIKAAADYVTASNNQDGIALAVEKFVDMEGHHHHHH | soluble |
| MGSDKIHHHHHHMHPNIATLLSANLGESRTRHLLSLVSVPDGLPSDAEGRATRAEIAQALNMVLFAGILDRVPTGRAYTDDVAATGGKVVFDHGALRTVKWRDNGALPEGEAAFTRILRPLGYRLNGNYPLDRISMTGRSYAHADAPEGIAQFFVSEFHPERFSDAFREAVGRVTGNSADPLTPRAQTLLWQLDRDGVLTVADGAELIGLLVPCFERQHGVPRLADYETLLRESAEMAWIATEGNAFNHATDRVDDVFGLSEQQKALGRPMKDKVEVSGSGRVKQTAFRADTVRRQFIGAQGETVERDVPGSFYEFITRDRFADAPAASPRVDLGFDAGNAQGIFKMTAAV | not soluble |
| RPQGLHLELETRLQKMYGIRQVIVVEATEPDDEESIKQAIGSAAAHYLETSLSAQDHIGISSWSSTIRAMVSHMHPQPGKQSAQEVVQLLGGVGNKGAFEATLLTQRLATLLNCPAFLLPSQSIEQSVESKQRIVEMEEVKEVLHRFDSITLAIVGIGELEPSQLLRNSGNYYTEDMLRVLAERGAVGDICLRYFDAQGKPVLEEDEEFVVSMGLGKLRSINRVLGLAGGVRKVQAIKGALLGGYLDVLITDVGTARGLGG | soluble |
| MVQNNDVDGAFGLLNRLMDSEGMLKIIRRTQFYQKPYMQRKTLSMEASTAIFNEDMNRKMKFLVRKNRPDKHPGQVTS | not soluble |
| MAIKNAFYAQSGGVTAVINASACGVIQTARKHPDQIGKVYAGRNGIIGALKEELIDTSLESDDAIQALIHTPGGAFGSCRYKLKNISENQREYERLIEVFRAHDIGYFFYNGGGDSQDTAYKVSQLADRMGYPITCIGVPKTVDNDLPFTDCCPGFGSVAKYIATSTLEASLDIKSMCETSTKVFILEVMGRHAGWIAAAGGLAGQSEGEPPHVILFPEIPFNREKFLERVDQCVRDYGYCVVVASEGAQYEDGRFVADAGAKDAFGHTQLGGVAPALANMVKQALGHKYHWAVADYLQRAARHIASATDVEQAYAVGKAAVEMALAGKQALMPTIVRDQAKPYRWSIGEANLSEVANQEKKMPIHYITDNGFGITQDCRDYLQPLIAGESFPPFDDGLPRVAKLKNQLVEKKLRTEFELLEHHHHHH | not soluble |
| SPTVEELYRNYGILADATEQVGQHKDAYQVILDGVKGGTKEKRLAAQFIPKFFKHFPELADSAINAQLDLCEDEDVSIRRQAIKELPQFATGENLPRVADILTQLLQTDDSAEFNLVNNALLSIFKMDAKGTLGGLFSQILQGEDIVRERAIKFLSTKLKTLPDEVLTKEVEELILTESKKVLEDVTGEEFVLFMKILSGLKSLQTVSGRQQLVELVAEQADLEQTFNPSDPDCVDRLLQCTRQAVPLFSKNVHSTRFVTYFCEQVLPNLGTLTTPVEGLDIQLEVLKLLAEMSSFCGDMEKLETNLRKLFDKLLEYMPLPPEEAENGENAGNEEPKLQFSYVECLLYSFHQLGRKLPDFLTAKLNAEKLKDFKIRLQYFARGLQVYIRQLRLALQGKTGEALKTEENKIKVVALKITNNINVLIKDLFHIPPSYKSTVTLSWKPVQKVEIGQKRASEDTTSGSPPKKSSAGPKRDARQIYNPPSGKYSSNLGNFNYERSLQGK | soluble |
| MSLTETTDLYRMSSSLRVVALAETLQRARAFASRLGIIRVTDTTRLDCIGIPVFASIRPTALPGSLCVNAGKGLRPEEARVGAYMEAIEFAMAEYGRSAVDYVMATPRDVLDGRSRPEAILDFCPVFGAQITLDDPMPCVEAEELLSSTRCLVPAELVYVPAPAVEGVQRHFGSSSNGLCSGNSVWEASVHGLAEVIERDIQSFCFLHDTSVLVDIASLPPQPAALARQIGEAGFTLRLRYVENIFELPYFAAYVMEPDPVDAVYICGGFGCHPFKEIAAVRAICEAVQGRLSFIHGGRDDLIERHRLLAQMNGEQELAFSRKLAAKVSRPEGMIGFEAIGDRSGEVCDLSSAWEVLVAAIRKVGIAHVCRVVFTQPHDPVQVLKLIVPRLEMFDRSTRRIGPRLRDHARFHEGHHHHHH | not soluble |
| MGSDKIHHHHHHMVLLILKFHGESVKIKPECAICIIRQVVDAANEITDDEREQFRLIKSTMEVIKDVYGESAVPAWMGTVVHRYLKKISNNNDPYKNLKEKANKIALQYLDKVREMSNTDDELERLRKKVLATIAGNVIDFGAYSTGINIEKLIEDTLNGELKIDNSRKLLNDLKDKNIKKILYICDNAGEIIFDRVLMEEIKKYDKDIVAVVKGKPILNDATLEDAKIAKIDEIAKVITTGSDIIGIILEECSEEFLKEFESADLIIAKGMGNYESLTEYEDKIDKPIYYILKAKCKPVAENIGVDVGDNVLLKR | not soluble |
| MPNFFKFHTVIERHWQKPYPVLSFLLKPLSGLFAKIAAKWRADFLSGKRQSEKLSVPVVVVGNIHAGGTGKTPIAAALVSGLQEKGVKVGIISRGYGRKSKAVYVLNAASRAEDAGDEPLLLFRKTGAPTAVGSSRVEAGRALLAAHPELELIVADDGLQHYALQRDVEIAVFPAADTGRTDLDLLPNGNLREPLSRLESVDAVVVGGRAADGFMPSEHLFGSRIEAGAVYRLNRPSEKLDISTLSGKRVAAVAGIARPQRFFDTLTHMGIRLDQTVALPDHADIFNRDLPPADVVLVTEKDAVKFSDGICTDNVWVLPVCAIIEPDLAEFVLERLEGVPKAVLEHHHHHH | not soluble |
| MMKKMMVLYNETSGSSESKEIAERFKKAAEARGEAVILQPSNPDIDPEEMRKNAKENQVGVLVVIGGDGTIHHAVQNFKDTIRDYQIGIIPGGTVNNFARVLSIPLKEEDAFETILAGQTTPVDFGMVNQDVMISTLTIGLLADTAANVTQQEKQKYGPLAFTKQFFRLLMKKKKYKLKIDGDERRWHGKAQLLTMTMTNSAGGFTNFDANATPDDGEVHIIILPKLVFYKFVYYLPKIIRGQLNEIPGVVYFSGSQFKISGEKDKKVQTRTDGDPTDDLPIKVTVEAGGLNVFVPETSTSTKE | not soluble |
| MGSDKIHHHHHHMAIQQLEKPEHAGRRTAPEITVSGIGKRYGATPVLMDVTLSVTPGEIHGIMGENGAGKSTLLKILGGAIMADSGTMELDGNPVRITTPRDAISQGISLISQELALIPNLSVLENVFLGRWSNRGSLLRPTKDGDHFARLLEETGFDLDPRATVGNLPIGQQQQVEILKALARGAKVLCMDEPTAVLNEAEKEKLLQVIKRLAQTGTTILIVSHYLEEVLELVDRVTILRDGQHIVTEDAAGHTPESLVRLMVGRDVDFLLPEIRQVQSQADTVLRVVGLTSAKVKEISFQVRRGEILGIAGLVGSGRSETLLAVFGADRTTGGHVEVNGRRIRASSIRDAIKAGIALIPESRKEQGLVMSRPASENIALSTLSGRSWAGFVSARREKAAVKDVSRSVDLRGARPGQPIANLSGGNQQKALFAKWLLDPPAVLLVDEPTRGVDIAAKARIHSIIAELAAKGTAVIVVSSELEEVLGLSHRIHVMRHGRIVAEFDRNASRDEVMTSAFLK | not soluble |
